Patent US20230212319A1, “NOVEL ANTIGEN BINDING DOMAINS AND SYNTHETIC ANTIGEN RECEPTORS INCORPORATING THE SAME” (University of Southern California, priority 2020, published 2023)

Tested on: L363 cells
Assay: JNG assay, co-culture with L363 cells
Type: cell-based
Conditions: co-culture with L363
Method: Cellular supernatant is collected and assayed for the induction of cytokines (e.g., IL2).
JNG (Jurkat cells expressing EGFP under an NFAT promoter) were infected with lentiviral vectors encoding different single chain and multi-chain SARs by spinfection in the presence of 8 µg/ml of Polybrene® (Sigma, Catalog no. H9268). The Jurkat-NFAT-GFP cells are engineered in such a way that the IL-2 promoter, which carries NFAT binding sites, is cloned upstream of the GFP gene. These cells have been used to study signaling via TCR and CAR. The different SARs were stably expressed in Jurkat NFAT-GFP cells by lentiviral mediated gene transfer, followed by selection with puromycin or blasticidin. No drug selection was used in case the construct lacked an antibiotic resistance gene. The SAR-expressing Jurkat-NFAT-GFP cells were cocultured with the target cells at E:T ratio of approximately 1:2 for approximately 4 hours to 18 hours. When the interaction between SIRs and their target antigen results in activation of the NFAT pathway, GFP expression is induced. […] GFP expression was monitored by FACS analysis. The Jurkat-NFAT-GFP (parental) cells were used as control. The structure of different constructs can be determined based on their names. […] The sequence of the other constructs in the table can be similarly determined from their names and by referring to the different Tables of this disclosure that provide the names and SEQ ID NO of the different modules. Alternatively, the composition and modular architecture of the different SAR constructs can be determined from their sequences by bioinformatics tools, including using nucleic acid and amino acids homology searches. A SAR is considered positive in the assay in case the SAR expressing Jurkat-NFAT-GFP cells show greater % GFP positive cells when cultured with the target cell line as compared to parental Jurkat-NFAT-GFP cells. […] In general, the number +/-, +, 2+, 3+, 4+, 5+ refer to approximately 5%, 10%, 20%, 30%, 40% and 50% GFP positive cells. The % of GFP induction in the above assay is dependent not only the relative strength of the SAR but also, among other factors, on the relative level of expression of the SAR in the JNG cells and the relative level of expression of the target antigen in the target cell line. To control for the difference in gene transduction efficiency of the different SAR constructs, the experiment was conducted with JNG cells transduced with SAR constructs co-expressing a drug resistance gene (e.g., puromycin or PAC) followed by drug selection to generate a stable population of SAR-expressing cells. It is to be noted that the drug resistance gene (e.g., PAC) in the SAR constructs is optional and in vivo studies were conducted with SAR constructs lacking the PAC gene.

Molecule | NFAT-GFP ASSAY: L363
21988 (protein) MALPVTALLLPLALLLHAARPEVQLLESGGGLVQPGGSLRLSCAASGFTFSSYAMSWVRQAPGKGLEWVSSISGSGDYIYYADSVKGRFTISRDISKNTLYLQMNSLRAEDTAVYYCAKEGTGANSSLADYRGQGTLVTVSSLEDLKNVFPPEVAVFEPSEAEISHTQKATLVCLATGFYPDHVELSWWVNGKEVHSGVCTDPQPLKEQPALNDSRYCLSSRLRVSATFWQNPRNHFRCQVQFYGLSENDEWTQDRAKPVTQIVSAEAWGRADCGFTSESYQQGVLSATILYEILLGKATLYAVLVSALVLMAMVKRKDSRGRAKRSGSGATNFSLLKQAGDVEENPGPTSMDWIWRILFLVGAATGAHSFEVQLLESGGGLIQPGGSLRLSCAASGFTFSSHAMTWVRQAPGKGLEWVSAISGSGDYTHYADSVKGRFTISRDNSKNTVYLQMNSLRAEDSAVYYCAKDEDGGSLLGHRGQGTLVTVSSTRIQNPDPAVYQLRDSKSSDKSVCLFTDFDSQTNVSQSKDSDVYITDKCVLDMRSMDFKSNSAVAWSNKSDFACANAFNNSIIPEDTFFPSPESSCDVKLVEKSFETDTNLNFQNLSVIGFRILLLKVAGFNLLMTLRLWSSRAKRSGSGVKQTLNFDLLKLAGDVESNPGPSRGHMTEYKPTVRLATRDDVPRAVRTLAAAFADYPATRHTVDPDRHIERVTELQELFLTRVGLDIGKVWVADDGAAVAVWTTPESVEAGAVFAEIGPRMAELSGSRLAAQQQMEGLLAPHRPKEPAWFLATVGVSPDHQGKGLGSAVVLPGVEAAERAGVPAFLETSAPRNLPFYERLGFTVTADVEVPEGPRTWCMTRKPGA | + (refer to approximately 5%, 10%, 20%, 30%, 40% and 50% GFP positive cells)
21989 (protein) MALPVTALLLPLALLLHAARPQVQLVESGGGLVQPGGSLRLSCAASGFTFTNHAMSWVRQAPGKGLELVSSISGNGRTTYYADSVKGRFTISRDISKNTLDLQMNSLRAEDTAVYYCAKDGGETLVDSRGQGTLVTVSSLEDLKNVFPPEVAVFEPSEAEISHTQKATLVCLATGFYPDHVELSWWVNGKEVHSGVCTDPQPLKEQPALNDSRYCLSSRLRVSATFWQNPRNHFRCQVQFYGLSENDEWTQDRAKPVTQIVSAEAWGRADCGFTSESYQQGVLSATILYEILLGKATLYAVLVSALVLMAMVKRKDSRGRAKRSGSGATNFSLLKQAGDVEENPGPTSMDWIWRILFLVGAATGAHSFEEVQLLESGGGLVQPGGSLRLSCAASGFTFSSYAMSWVRQAPGKGLEWVSSISGSGDYIYYADSVKGRFTISRDISKNTLYLQMNSLRAEDTAVYYCAKEGTGANSSLADYRGQGTLVTVSSTRIQNPDPAVYQLRDSKSSDKSVCLFTDFDSQTNVSQSKDSDVYITDKCVLDMRSMDFKSNSAVAWSNKSDFACANAFNNSIIPEDTFFPSPESSCDVKLVEKSFETDTNLNFQNLSVIGFRILLLKVAGFNLLMTLRLWSSRAKRSGSGVKQTLNFDLLKLAGDVESNPGPSRGHMTEYKPTVRLATRDDVPRAVRTLAAAFADYPATRHTVDPDRHIERVTELQELFLTRVGLDIGKVWVADDGAAVAVWTTPESVEAGAVFAEIGPRMAELSGSRLAAQQQMEGLLAPHRPKEPAWFLATVGVSPDHQGKGLGSAVVLPGVEAAERAGVPAFLETSAPRNLPFYERLGFTVTADVEVPEGPRTWCMTRKPGA | + (refer to approximately 5%, 10%, 20%, 30%, 40% and 50% GFP positive cells)
21990 (protein) MALPVTALLLPLALLLHAARPQVQLVESGGGLVQPGGSLRLSCAASGFTFTNHAMSWVRQAPGKGLELVSSISGNGRTTYYADSVKGRFTISRDISKNTLDLQMNSLRAEDTAVYYCAKDGGETLVDSRGQGTLVTVSSLEDLKNVFPPEVAVFEPSEAEISHTQKATLVCLATGFYPDHVELSWWVNGKEVHSGVCTDPQPLKEQPALNDSRYCLSSRLRVSATFWQNPRNHFRCQVQFYGLSENDEWTQDRAKPVTQIVSAEAWGRADCGFTSESYQQGVLSATILYEILLGKATLYAVLVSALVLMAMVKRKDSRGRAKRSGSGATNFSLLKQAGDVEENPGPTSMDWIWRILFLVGAATGAHSFEVQLLESGGGLIQPGGSLRLSCAASGFTFSSHAMTWVRQAPGKGLEWVSAISGSGDYTHYADSVKGRFTISRDNSKNTVYLQMNSLRAEDSAVYYCAKDEDGGSLLGHRGQGTLVTVSSTRIQNPDPAVYQLRDSKSSDKSVCLFTDFDSQTNVSQSKDSDVYITDKCVLDMRSMDFKSNSAVAWSNKSDFACANAFNNSIIPEDTFFPSPESSCDVKLVEKSFETDTNLNFQNLSVIGFRILLLKVAGFNLLMTLRLWSSRAKRSGSGVKQTLNFDLLKLAGDVESNPGPSRGHMTEYKPTVRLATRDDVPRAVRTLAAAFADYPATRHTVDPDRHIERVTELQELFLTRVGLDIGKVWVADDGAAVAVWTTPESVEAGAVFAEIGPRMAELSGSRLAAQQQMEGLLAPHRPKEPAWFLATVGVSPDHQGKGLGSAVVLPGVEAAERAGVPAFLETSAPRNLPFYERLGFTVTADVEVPEGPRTWCMTRKPGA | + (refer to approximately 5%, 10%, 20%, 30%, 40% and 50% GFP positive cells)
22061 (protein) MALPVTALLLPLALLLHAARPQVQLVESGGGLVQPGGSLRLSCAASGFTFTNHAMSWVRQAPGKGLELVSSISGNGRTTYYADSVKGRFTISRDISKNTLDLQMNSLRAEDTAVYYCAKDGGETLVDSRGQGTLVTVSSLEGSGGGGSGGGGSGEDLKNVFPPEVAVFEPSEAEISHTQKATLVCLATGFYPDHVELSWWVNGKEVHSGVCTDPQPLKEQPALNDSRYCLSSRLRVSATFWQNPRNHFRCQVQFYGLSENDEWTQDRAKPVTQIVSAEAWGRADCGFTSESYQQGVLSATILYEILLGKATLYAVLVSALVLMAMVKRKDSRGRAKRSGSGATNFSLLKQAGDVEENPGPTSMDWIWRILFLVGAATGAHSFEEVQLLESGGGLVQPGGSLRLSCAASGFTFSSYAMSWVRQAPGKGLEWVSSISGSGDYIYYADSVKGRFTISRDISKNTLYLQMNSLRAEDTAVYYCAKEGTGANSSLADYRGQGTLVTVSSTRIQNPDPAVYQLRDSKSSDKSVCLFTDFDSQTNVSQSKDSDVYITDKCVLDMRSMDFKSNSAVAWSNKSDFACANAFNNSIIPEDTFFPSPESSCDVKLVEKSFETDTNLNFQNLSVIGFRILLLKVAGFNLLMTLRLWSSRAKRSGSGVKQTLNFDLLKLAGDVESNPGPSRGHMTEYKPTVRLATRDDVPRAVRTLAAAFADYPATRHTVDPDRHIERVTELQELFLTRVGLDIGKVWVADDGAAVAVWTTPESVEAGAVFAEIGPRMAELSGSRLAAQQQMEGLLAPHRPKEPAWFLATVGVSPDHQGKGLGSAVVLPGVEAAERAGVPAFLETSAPRNLPFYERLGFTVTADVEVPEGPRTWCMTRKPGA | L363 (2+) (refer to approximately 5%, 10%, 20%, 30%, 40% and 50% GFP positive cells)
22062 (protein) MALPVTALLLPLALLLHAARPQVQLVESGGGLVQPGGSLRLSCAASGFTFTNHAMSWVRQAPGKGLELVSSISGNGRTTYYADSVKGRFTISRDISKNTLDLQMNSLRAEDTAVYYCAKDGGETLVDSRGQGTLVTVSSLEVAALEREDLKNVFPPEVAVFEPSEAEISHTQKATLVCLATGFYPDHVELSWWVNGKEVHSGVCTDPQPLKEQPALNDSRYCLSSRLRVSATFWQNPRNHFRCQVQFYGLSENDEWTQDRAKPVTQIVSAEAWGRADCGFTSESYQQGVLSATILYEILLGKATLYAVLVSALVLMAMVKRKDSRGRAKRSGSGATNFSLLKQAGDVEENPGPTSMDWIWRILFLVGAATGAHSFEEVQLLESGGGLVQPGGSLRLSCAASGFTFSSYAMSWVRQAPGKGLEWVSSISGSGDYIYYADSVKGRFTISRDISKNTLYLQMNSLRAEDTAVYYCAKEGTGANSSLADYRGQGTLVTVSSTRIQNPDPAVYQLRDSKSSDKSVCLFTDFDSQTNVSQSKDSDVYITDKCVLDMRSMDFKSNSAVAWSNKSDFACANAFNNSIIPEDTFFPSPESSCDVKLVEKSFETDTNLNFQNLSVIGFRILLLKVAGFNLLMTLRLWSSRAKRSGSGVKQTLNFDLLKLAGDVESNPGPSRGHMTEYKPTVRLATRDDVPRAVRTLAAAFADYPATRHTVDPDRHIERVTELQELFLTRVGLDIGKVWVADDGAAVAVWTTPESVEAGAVFAEIGPRMAELSGSRLAAQQQMEGLLAPHRPKEPAWFLATVGVSPDHQGKGLGSAVVLPGVEAAERAGVPAFLETSAPRNLPFYERLGFTVTADVEVPEGPRTWCMTRKPGA | L363 (+/-) (refer to approximately 5%, 10%, 20%, 30%, 40% and 50% GFP positive cells)
